In patent publication US20230287060, “PROTEINS AND THEIR USE FOR NUCLEOTIDE BINDING” (The University of Western Australia, published 2023):

Target: T1, cPPR-Telo1 (synthetic construct)
T1 chain: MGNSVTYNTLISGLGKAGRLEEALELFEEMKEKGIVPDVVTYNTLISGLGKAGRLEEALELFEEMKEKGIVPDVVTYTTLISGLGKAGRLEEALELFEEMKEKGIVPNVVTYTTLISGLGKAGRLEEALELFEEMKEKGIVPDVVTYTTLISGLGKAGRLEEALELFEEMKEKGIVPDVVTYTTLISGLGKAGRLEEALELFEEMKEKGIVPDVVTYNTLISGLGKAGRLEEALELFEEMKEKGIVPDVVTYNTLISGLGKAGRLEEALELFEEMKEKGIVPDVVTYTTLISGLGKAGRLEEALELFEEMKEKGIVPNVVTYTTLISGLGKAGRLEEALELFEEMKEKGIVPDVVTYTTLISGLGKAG
Assay: structure; co-crystal structure 2.0 A, PDB 5ORQ; protein/DNA 1:2; 100 mM sodium acetate pH 4.6, 20 mM CaCl2, 22% MPD
Settings: tags: GST and His tags (pETM30, E. coli)
Description: Crystals of cPPR-Telo1 were grown at 23° C. by the sitting drop vapour diffusion method by mixing 1 μl protein (5 mg/ml) with an equal volume of reservoir solution (100 mM sodium acetate pH 4.6, 20 mM calcium chloride, and 40% MPD). In addition, cPPR-Telo1 was incubated with target ssDNA oligonucleotide (TTAGGGTTAG) at a protein/DNA molar ratio of 1:2 for 30 min at 4° C. and crystallized in 100 mM sodium acetate pH 4.6, 20 mM calcium chloride, and 22% MPD. For both cPPR-Telo1 and cPPR-Telo1/ssDNA a single-wavelength anomalous dispersion dataset was collected at the K-edge of selenium at beam line ID30A-3 (ESRF, Grenoble, France). […] Acta Crystallogr D Biol Crystallogr 66, 213-21 (2010) was used as a starting model for manual building in COOT (Emsley, P. & Cowtan, K. Coot: model-building tools for molecular graphics. Acta Crystallogr D Biol Crystallogr 60, 2126-32 (2004) interspersed with refinement in Buster (version 2.10.3) (Smart, O. S. et al. Exploiting structure similarity in refinement: automated NCS and target-structure restraints in BUSTER. Acta Crystallogr D Biol Crystallogr 68, 368-80 (2012), which rendered a final model (Table 1) that had no Ramachandran outliers as assessed by MOLPROBITY (Lovell, S. C. et al. Structure validation by Calpha geometry: phi,psi and Cbeta deviation. […]

## TTAGGGTTAG (ssDNA) [telomeric ssDNA target 10-mer]
  binding result: binds
